Here are results for one molecule from article PMC2518714.

The test has as its target T1, CD9 (wild type) (human (endogenous in PC3)), P21926.
T1 chain: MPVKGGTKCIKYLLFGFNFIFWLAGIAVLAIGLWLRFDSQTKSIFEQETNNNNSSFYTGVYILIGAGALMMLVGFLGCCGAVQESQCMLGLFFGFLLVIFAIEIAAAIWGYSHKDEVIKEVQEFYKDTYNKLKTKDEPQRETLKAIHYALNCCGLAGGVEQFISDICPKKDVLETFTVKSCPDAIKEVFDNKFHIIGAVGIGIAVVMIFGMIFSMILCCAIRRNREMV
Nature of the test: single-molecule codiffusion. The following applies: remark: other sources report otherwise.

B1: CD9 (wild type), P21926 1-228 (natural protein)
chain: T1 chain
modifications: here or on the partner: palmitoylated (sites not given); palmitoylated (sites not given)
Molecule B1 gave a percent of Brownian and mixed trajectories with codiffusing molecules of 15%; a percent of possible pairs dynamically colocalized of 5%.
